{"source": "patent US20090047356A1", "about": "(published 2009)", "binders": {"B1": {"name": "soluble tissue factor (extracellular domain of TF) (receptor, UniProt P13726 33-251, looked up)", "chain": "SGTTNTVAAYNLTWKSTNFKTILEWEPKPVNQVYTVQISTKSGDWKSKCFYTTDTECDLTDEIVKDVKQTYLARVFSYPAGNVESTGSAGEPLYENSPEFTPYLETNLGQPTIQSFEQVGTKVNVTVEDERTLVRRNNTFLSLRDVFGKDLIYTLYYWKSSSSGKKTAKTNTNEFLIDVDKGENYCFSVQAVIPSRTVNRKSTDSPVECMGQEKGEFRE", "notes": "extracellular domain; also called sTF"}, "B2": {"name": "rTF:VIIa complex on PCPS vesicles (TF-liposomes, 20% PS, 80% PC) (protein)", "chain 1": "AEDQVDPRLIDGKSGTTNTVAAYNLTWKSTNFKTILEWEPKPVNQVYTVQISTKSGDWKSKCFYTTDTECDLTDEIVKDVKQTYLARVFSYPAGNVESTGSAGEPLYENSPEFTPYLETNLGQPTIQSFEQVGTKVNVTVEDERTLVRRNNTFLSLRDVFGKDLIYTLYYWKSSSSGKKTAKTNTNEFLIDVDKGENYCFSVQAVIPSRTVNRKSTDSPVECMGQEKGEFREIFYIIGAVVFVVIILVIILAISLHK", "chain 2": "ANAFLEELRPGSLERECKEEQCSFEEAREIFKDAERTKLFWISYSDGDQCASSPCQNGGSCKDQLQSYICFCLPAFEGRNCETHKDDQLICVNENGGCEQYCSDHTGTKRSCRCHEGYSLLADGVSCTPTVEYPCGKIPILEKRNASKPQGRIVGGKVCPKGECPWQVLLLVNGAQLCGGTLINTIWVVSAAHCFDKIKNWRNLIAVLGEHDLSEHDGDEQSRRVAQVIIPSTYVPGTTNHDIALLRLHQPVVLTDHVVPLCLPERTFSERTLAFVRFSLVSGWGQLLDRGATALELMVLNVPRLMTQDCLQQSRKVGDSPNITEYMFCAGYSDGSKDSCKGDSGGPHATHYRGTWYLTGIVSWGQGCATVGHFGVYTRVSQYIEWLQKLMRSEPRPGVLLRAPFP"}, "B3": {"name": "TF:VIIa complex on TF-Nanodiscs 10% PS, 90% PC (protein)", "chain 1": "B2 chain 1", "chain 2": "B2 chain 2", "chain 3": "MGHHHHHHIEGRLKLLDNWDSVTSTFSKLREQLGPVTQEFWDNLEKETEGLRQEMSKDLEEVKAKVQPYLDDFQKKWQEEMELYRQKVEPLRAELQEGARQKLHELQEKLSPLGEEMRDRARAHVDALRTHLAPYSDELRQRLAARLEALKENGGARLAEYHAKATEHLSTLSEKAKPALEDLRQGLLPVLESFKVSFLSALEEYTKKLNTQ"}, "B4": {"name": "rTF in PCPS vesicles (20 mol % PS, 80 mol % PC; PL:rTF 8700:1) (receptor)", "chain": "B2 chain 1", "notes": "Recombinant truncated human tissue factor from E. coli (not glycosylated), reconstituted into PCPS liposomes by the Bio-Bead method; also called TF-liposomes; rTF in phospholipid vesicles"}, "B5": {"name": "TF:VIIa complex on TF-Nanodiscs 30% PS, 70% PC (protein)", "chain 1": "B2 chain 1", "chain 2": "B2 chain 2", "chain 3": "B3 chain 3"}, "B6": {"name": "rTF:VIIa complex on rTF-PCPS-nanoscale discs (TF-Nanodiscs 20% PS, 80% PC) (protein)", "chain 1": "B2 chain 1", "chain 2": "B2 chain 2", "chain 3": "B3 chain 3"}, "B7": {"name": "Nanodiscs containing 100% POPC (no TF) (other)", "chain": "B3 chain 3", "notes": "Control discs immobilized on an NTA Biacore chip; Their only protein is MSP1; also called POPC Nanodiscs"}}, "key": {"[1]": {"target": "T1, coagulation factor VIIa (UniProt P08709 61-466, Gla (gamma-carboxyglutamate) domain mentioned; positions not given)", "T1 construct": "also called FVIIa", "T1 sequence (looked up)": "B2 chain 2", "experiment": "listed in Table 2 of binding constants for TF:VIIa complexes; method for this row not stated"}, "[2]": {"target": "coagulation factor X, P00742", "sequence (P00742 whole entry, looked up)": "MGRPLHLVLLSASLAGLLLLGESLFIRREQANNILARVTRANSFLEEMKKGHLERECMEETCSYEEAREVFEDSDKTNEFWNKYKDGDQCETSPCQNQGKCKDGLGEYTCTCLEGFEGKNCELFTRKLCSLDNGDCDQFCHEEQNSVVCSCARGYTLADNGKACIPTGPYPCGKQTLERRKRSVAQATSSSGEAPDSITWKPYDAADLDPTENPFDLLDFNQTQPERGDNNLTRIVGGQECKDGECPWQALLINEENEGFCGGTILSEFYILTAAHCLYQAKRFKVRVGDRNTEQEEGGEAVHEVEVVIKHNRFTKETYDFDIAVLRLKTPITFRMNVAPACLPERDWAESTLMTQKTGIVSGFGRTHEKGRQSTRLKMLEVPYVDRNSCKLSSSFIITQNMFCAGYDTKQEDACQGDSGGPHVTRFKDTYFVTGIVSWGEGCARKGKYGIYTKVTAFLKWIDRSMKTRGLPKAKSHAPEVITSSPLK"}, "[3]": {"target": "T1, coagulation factor VIIa", "experiment": "apparent Kd; TF-dependent enhancement of factor VIIa enzymatic activity as readout for complex formation"}, "[4]": {"target": "T1, coagulation factor VIIa", "experiment": "TF-dependent enhancement of factor VIIa enzymatic activity as readout for complex formation"}, "[5]": {"target": "T2, coagulation factor X (UniProt P00742 41-488, Gla (gamma-carboxyglutamate) domain mentioned; positions not given)", "T2 construct": "Substrate of the TF:VIIa complex", "T2 sequence (P00742 41-488 limits assumed)": "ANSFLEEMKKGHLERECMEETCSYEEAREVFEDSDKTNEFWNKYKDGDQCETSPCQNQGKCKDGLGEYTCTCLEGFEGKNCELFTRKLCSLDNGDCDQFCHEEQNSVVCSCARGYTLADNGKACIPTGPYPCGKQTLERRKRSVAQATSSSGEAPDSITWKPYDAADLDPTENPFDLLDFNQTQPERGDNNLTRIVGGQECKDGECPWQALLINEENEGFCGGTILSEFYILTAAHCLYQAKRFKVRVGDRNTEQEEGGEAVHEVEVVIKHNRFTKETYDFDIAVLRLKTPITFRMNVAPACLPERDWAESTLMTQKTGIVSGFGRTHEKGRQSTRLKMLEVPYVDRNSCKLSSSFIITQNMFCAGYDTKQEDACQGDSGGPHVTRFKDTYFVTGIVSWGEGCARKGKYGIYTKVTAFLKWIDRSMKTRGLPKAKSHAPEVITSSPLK", "experiment": "SPR (Biacore 3000), Nanodiscs immobilized on NTA chip via His tag of MSP1, factor X flowed over"}}}
{"binder": "B1", "values": [{"measurement": "Kd", "setting": "[1]", "result": "~3", "unit": "nM"}]}
{"binder": "B2", "values": [{"measurement": "Km (factor X activation by TF:VIIa)", "setting": "[2]", "result": 0.0202, "unit": "µM"}, {"measurement": "Km, app (factor X activation by rTF:VIIa)", "setting": "[2]", "result": 0.0202, "unit": "µM"}]}
{"binder": "B3", "values": [{"measurement": "Km (factor X activation by TF:VIIa)", "setting": "[2]", "result": 0.132, "unit": "µM"}]}
{"binder": "B4", "values": [{"measurement": "Kd", "setting": "[3]", "result": 0.0264, "unit": "nM"}, {"measurement": "Kd", "setting": "[4]", "result": 0.0264, "unit": "nM"}]}
{"binder": "B5", "values": [{"measurement": "Km (factor X activation by TF:VIIa)", "setting": "[2]", "result": 0.0452, "unit": "µM"}]}
{"binder": "B6", "values": [{"measurement": "Km (factor X activation by TF:VIIa)", "setting": "[2]", "result": 0.0686, "unit": "µM"}, {"measurement": "Km, app (factor X activation by rTF:VIIa)", "setting": "[2]", "result": 0.0686, "unit": "µM"}]}
{"binder": "B7", "values": [{"measurement": "binding result", "setting": "[5]", "result": "no binding (tested: 1 µM)"}]}
